# Source: the RNAGym collection of RNA variant scans (doi:10.1021/acssynbio.7b00057)
# B1: Pistol ribozyme (parent)
# chain: GGGUCGUUGUUCCAUAAUCGCGUGGAUAUGGCACGCAAGUUUCUACCGGGCACCGUAAAUGUCCGACUGGAGCCGUUCGGGCGGCUAUAAACAGACCUCAGGCCCGAAGCGUGGCGGCACCUGCCGCCGGUGGUAAAAAAGAUCGGAAGAGCACACGUCU
# Variants of: B1
# Experiment: aptazyme ON/OFF ratio, guanine; higher = stronger switching; co-transcriptional cleavage with and without guanine
row,Variant,aptazyme ON/OFF ratio
1,GGGUCGUGACCUUAUAAUCGCGUGGAUAUGGCACGCAAGUUUCUACCGGGCACCGUAAAUGUCCGACUGGAGCCGUUCGGGCGGCUAUAAACAGACCUCAGGCCCGAAGCGUGGCGGCACCUGCCGCCGGUGGUAAAAAAGAUCGGAAGAGCACACGUCU,1.03
2,GGGUCGUGACCUAAUAAUCGCGUGGAUAUGGCACGCAAGUUUCUACCGGGCACCGUAAAUGUCCGACUGGAGCCGUUCGGGCGGCUAUAAACAGACCUCAGGCCCGAAGCGUGGCGGCACCUGCCGCCGGUGGUAAAAAAGAUCGGAAGAGCACACGUCU,1.04
3,GGGUCGUGACCUGAUAAUCGCGUGGAUAUGGCACGCAAGUUUCUACCGGGCACCGUAAAUGUCCGACUGGAGCCGUUCGGGCGGCUAUAAACAGACCUCAGGCCCGAAGCGUGGCGGCACCUGCCGCCGGUGGUAAAAAAGAUCGGAAGAGCACACGUCU,1.04
4,GGGUCGUGACCACAUAAUCGCGUGGAUAUGGCACGCAAGUUUCUACCGGGCACCGUAAAUGUCCGACUGGAGCCGUUCGGGCGGCUAUAAACAGACCUCAGGCCCGAAGCGUGGCGGCACCUGCCGCCGGUGGUAAAAAAGAUCGGAAGAGCACACGUCU,1.08
5,GGGUCGUGACCGCAUAAUCGCGUGGAUAUGGCACGCAAGUUUCUACCGGGCACCGUAAAUGUCCGACUGGAGCCGUUCGGGCGGCUAUAAACAGACCUCAGGCCCGAAGCGUGGCGGCACCUGCCGCCGGUGGUAAAAAAGAUCGGAAGAGCACACGUCU,1.05
6,GGGUCGUGACCUCAUAAUCGCGUGGAUAUGGCACGCAAGUUUCUACCGGGCACCGUAAAUGUCCGACUGGAGCCGUUCGGGCGGCUAUAAACAGACCUCAGGCCCGAAGCGUGGCGGCACCUGCCGCCGGUGGUAAAAAAGAUCGGAAGAGCACACGUCU,1.02
7,GGGUCGUGACCAUAUAAUCGCGUGGAUAUGGCACGCAAGUUUCUACCGGGCACCGUAAAUGUCCGACUGGAGCCGUUCGGGCGGCUAUAAACAGACCUCAGGCCCGAAGCGUGGCGGCACCUGCCGCCGGUGGUAAAAAAGAUCGGAAGAGCACACGUCU,1.07
8,GGGUCGUGACCAAAUAAUCGCGUGGAUAUGGCACGCAAGUUUCUACCGGGCACCGUAAAUGUCCGACUGGAGCCGUUCGGGCGGCUAUAAACAGACCUCAGGCCCGAAGCGUGGCGGCACCUGCCGCCGGUGGUAAAAAAGAUCGGAAGAGCACACGUCU,1.05
9,GGGUCGUGACCAGAUAAUCGCGUGGAUAUGGCACGCAAGUUUCUACCGGGCACCGUAAAUGUCCGACUGGAGCCGUUCGGGCGGCUAUAAACAGACCUCAGGCCCGAAGCGUGGCGGCACCUGCCGCCGGUGGUAAAAAAGAUCGGAAGAGCACACGUCU,1.12
10,GGGUCGUGACAGGAUAAUCGCGUGGAUAUGGCACGCAAGUUUCUACCGGGCACCGUAAAUGUCCGACUGGAGCCGUUCGGGCGGCUAUAAACAGACCUCAGGCCCGAAGCGUGGCGGCACCUGCCGCCGGUGGUAAAAAAGAUCGGAAGAGCACACGUCU,1.07
11,GGGUCGUGACAGUAUAAUCGCGUGGAUAUGGCACGCAAGUUUCUACCGGGCACCGUAAAUGUCCGACUGGAGCCGUUCGGGCGGCUAUAAACAGACCUCAGGCCCGAAGCGUGGCGGCACCUGCCGCCGGUGGUAAAAAAGAUCGGAAGAGCACACGUCU,1.15
12,GGGUCGUGACAGAAUAAUCGCGUGGAUAUGGCACGCAAGUUUCUACCGGGCACCGUAAAUGUCCGACUGGAGCCGUUCGGGCGGCUAUAAACAGACCUCAGGCCCGAAGCGUGGCGGCACCUGCCGCCGGUGGUAAAAAAGAUCGGAAGAGCACACGUCU,1.16
13,GGGUCGUGACGACAUAAUCGCGUGGAUAUGGCACGCAAGUUUCUACCGGGCACCGUAAAUGUCCGACUGGAGCCGUUCGGGCGGCUAUAAACAGACCUCAGGCCCGAAGCGUGGCGGCACCUGCCGCCGGUGGUAAAAAAGAUCGGAAGAGCACACGUCU,1.06
14,GGGUCGUGACACGAUAAUCGCGUGGAUAUGGCACGCAAGUUUCUACCGGGCACCGUAAAUGUCCGACUGGAGCCGUUCGGGCGGCUAUAAACAGACCUCAGGCCCGAAGCGUGGCGGCACCUGCCGCCGGUGGUAAAAAAGAUCGGAAGAGCACACGUCU,1.06
15,GGGUCGUGACACAAUAAUCGCGUGGAUAUGGCACGCAAGUUUCUACCGGGCACCGUAAAUGUCCGACUGGAGCCGUUCGGGCGGCUAUAAACAGACCUCAGGCCCGAAGCGUGGCGGCACCUGCCGCCGGUGGUAAAAAAGAUCGGAAGAGCACACGUCU,1.1
16,GGGUCGUGACACUAUAAUCGCGUGGAUAUGGCACGCAAGUUUCUACCGGGCACCGUAAAUGUCCGACUGGAGCCGUUCGGGCGGCUAUAAACAGACCUCAGGCCCGAAGCGUGGCGGCACCUGCCGCCGGUGGUAAAAAAGAUCGGAAGAGCACACGUCU,1.08
17,GGGUCGUGACCGUAUAAUCGCGUGGAUAUGGCACGCAAGUUUCUACCGGGCACCGUAAAUGUCCGACUGGAGCCGUUCGGGCGGCUAUAAACAGACCUCAGGCCCGAAGCGUGGCGGCACCUGCCGCCGGUGGUAAAAAAGAUCGGAAGAGCACACGUCU,1.05
18,GGGUCGUGACCGAAUAAUCGCGUGGAUAUGGCACGCAAGUUUCUACCGGGCACCGUAAAUGUCCGACUGGAGCCGUUCGGGCGGCUAUAAACAGACCUCAGGCCCGAAGCGUGGCGGCACCUGCCGCCGGUGGUAAAAAAGAUCGGAAGAGCACACGUCU,1.09

row,Variant,aptazyme ON/OFF ratio
1,GGGUCGUGACCGGAUAAUCGCGUGGAUAUGGCACGCAAGUUUCUACCGGGCACCGUAAAUGUCCGACUGGAGCCGUUCGGGCGGCUAUAAACAGACCUCAGGCCCGAAGCGUGGCGGCACCUGCCGCCGGUGGUAAAAAAGAUCGGAAGAGCACACGUCU,1.1
2,GGGUCGUGACGCCAUAAUCGCGUGGAUAUGGCACGCAAGUUUCUACCGGGCACCGUAAAUGUCCGACUGGAGCCGUUCGGGCGGCUAUAAACAGACCUCAGGCCCGAAGCGUGGCGGCACCUGCCGCCGGUGGUAAAAAAGAUCGGAAGAGCACACGUCU,1.34
3,GGGUCGUGACACCAUAAUCGCGUGGAUAUGGCACGCAAGUUUCUACCGGGCACCGUAAAUGUCCGACUGGAGCCGUUCGGGCGGCUAUAAACAGACCUCAGGCCCGAAGCGUGGCGGCACCUGCCGCCGGUGGUAAAAAAGAUCGGAAGAGCACACGUCU,1.37
4,GGGUCGUGACCCCAUAAUCGCGUGGAUAUGGCACGCAAGUUUCUACCGGGCACCGUAAAUGUCCGACUGGAGCCGUUCGGGCGGCUAUAAACAGACCUCAGGCCCGAAGCGUGGCGGCACCUGCCGCCGGUGGUAAAAAAGAUCGGAAGAGCACACGUCU,1.03
5,GGGUCGUGACAUAAUAAUCGCGUGGAUAUGGCACGCAAGUUUCUACCGGGCACCGUAAAUGUCCGACUGGAGCCGUUCGGGCGGCUAUAAACAGACCUCAGGCCCGAAGCGUGGCGGCACCUGCCGCCGGUGGUAAAAAAGAUCGGAAGAGCACACGUCU,1.04
6,GGGUCGUGACAUUAUAAUCGCGUGGAUAUGGCACGCAAGUUUCUACCGGGCACCGUAAAUGUCCGACUGGAGCCGUUCGGGCGGCUAUAAACAGACCUCAGGCCCGAAGCGUGGCGGCACCUGCCGCCGGUGGUAAAAAAGAUCGGAAGAGCACACGUCU,1.05
7,GGGUCGUGACAUGAUAAUCGCGUGGAUAUGGCACGCAAGUUUCUACCGGGCACCGUAAAUGUCCGACUGGAGCCGUUCGGGCGGCUAUAAACAGACCUCAGGCCCGAAGCGUGGCGGCACCUGCCGCCGGUGGUAAAAAAGAUCGGAAGAGCACACGUCU,1.05
8,GGGUCGUGACGAAAUAAUCGCGUGGAUAUGGCACGCAAGUUUCUACCGGGCACCGUAAAUGUCCGACUGGAGCCGUUCGGGCGGCUAUAAACAGACCUCAGGCCCGAAGCGUGGCGGCACCUGCCGCCGGUGGUAAAAAAGAUCGGAAGAGCACACGUCU,1.18
9,GGGUCGUGACGAGAUAAUCGCGUGGAUAUGGCACGCAAGUUUCUACCGGGCACCGUAAAUGUCCGACUGGAGCCGUUCGGGCGGCUAUAAACAGACCUCAGGCCCGAAGCGUGGCGGCACCUGCCGCCGGUGGUAAAAAAGAUCGGAAGAGCACACGUCU,1.18
10,GGGUCGUGACAAAAUAAUCGCGUGGAUAUGGCACGCAAGUUUCUACCGGGCACCGUAAAUGUCCGACUGGAGCCGUUCGGGCGGCUAUAAACAGACCUCAGGCCCGAAGCGUGGCGGCACCUGCCGCCGGUGGUAAAAAAGAUCGGAAGAGCACACGUCU,1.15
11,GGGUCGUGACAAUAUAAUCGCGUGGAUAUGGCACGCAAGUUUCUACCGGGCACCGUAAAUGUCCGACUGGAGCCGUUCGGGCGGCUAUAAACAGACCUCAGGCCCGAAGCGUGGCGGCACCUGCCGCCGGUGGUAAAAAAGAUCGGAAGAGCACACGUCU,1.16
12,GGGUCGUGACAAGAUAAUCGCGUGGAUAUGGCACGCAAGUUUCUACCGGGCACCGUAAAUGUCCGACUGGAGCCGUUCGGGCGGCUAUAAACAGACCUCAGGCCCGAAGCGUGGCGGCACCUGCCGCCGGUGGUAAAAAAGAUCGGAAGAGCACACGUCU,1.11
13,GGGUCGUGACCCAAUAAUCGCGUGGAUAUGGCACGCAAGUUUCUACCGGGCACCGUAAAUGUCCGACUGGAGCCGUUCGGGCGGCUAUAAACAGACCUCAGGCCCGAAGCGUGGCGGCACCUGCCGCCGGUGGUAAAAAAGAUCGGAAGAGCACACGUCU,0.984
14,GGGUCGUGACCCUAUAAUCGCGUGGAUAUGGCACGCAAGUUUCUACCGGGCACCGUAAAUGUCCGACUGGAGCCGUUCGGGCGGCUAUAAACAGACCUCAGGCCCGAAGCGUGGCGGCACCUGCCGCCGGUGGUAAAAAAGAUCGGAAGAGCACACGUCU,1.03
15,GGGUCGUGACCCGAUAAUCGCGUGGAUAUGGCACGCAAGUUUCUACCGGGCACCGUAAAUGUCCGACUGGAGCCGUUCGGGCGGCUAUAAACAGACCUCAGGCCCGAAGCGUGGCGGCACCUGCCGCCGGUGGUAAAAAAGAUCGGAAGAGCACACGUCU,1.03
16,GGGUCGUGACAUCAUAAUCGCGUGGAUAUGGCACGCAAGUUUCUACCGGGCACCGUAAAUGUCCGACUGGAGCCGUUCGGGCGGCUAUAAACAGACCUCAGGCCCGAAGCGUGGCGGCACCUGCCGCCGGUGGUAAAAAAGAUCGGAAGAGCACACGUCU,1.1
17,GGGUCGUGACAACAUAAUCGCGUGGAUAUGGCACGCAAGUUUCUACCGGGCACCGUAAAUGUCCGACUGGAGCCGUUCGGGCGGCUAUAAACAGACCUCAGGCCCGAAGCGUGGCGGCACCUGCCGCCGGUGGUAAAAAAGAUCGGAAGAGCACACGUCU,1.22
18,GGGUCGUGACAGCAUAAUCGCGUGGAUAUGGCACGCAAGUUUCUACCGGGCACCGUAAAUGUCCGACUGGAGCCGUUCGGGCGGCUAUAAACAGACCUCAGGCCCGAAGCGUGGCGGCACCUGCCGCCGGUGGUAAAAAAGAUCGGAAGAGCACACGUCU,1.14
